Measured values reported in the DeepSol protein solubility set.

Assay: soluble on expression in E. coli; label from the status in PepcDB or PDB records

Sequence	soluble on expression in E. coli
MSQMELIKKLREATGAGMMDVKRALEDAGWDEEKAVQLLRERGAMKAAKKADREAREGIIGHYIHHNQRVGVLVELNCETDFVARNELFQNLAKDLAMHIAMMNPRYVSAEEIPAEELEKERQIYIQAALNEGKPQQIAEKIAEGRLKKYLEEVVLLEQPFVKDDKVKVKELIQQAIAKIGENIVVRRFCRFELGA	soluble
MASALRPPRVPKPKGVLPSHYYESFLEKKGPCDRDYKKFWAGLQGLTIYFYNSNRDFQHVEKLNLGAFEKLTDEIPWGSSRDPGTHFSLILRNQEIKFKVETLECREMWKGFILTVVELRVPTDLTLLPGHLYMMSEVLAKEEARRALETPSCFLKVSRLEAQLLLERYPECGNLLLRPSGDGADGVSVTTRQMHNGTHVVRHYKVKREGPKYVIDVEQPFSCTSLDAVVNYFVSHTKKALVPFLLDEDYEKVLGYVEADKENGENVWVAPSAPGPGPAPCTGGPKPLSPASSQDKLPPLPPLPNQEENYVTPIGDGPAVDYENQDVASSSWPVILKPKKLPKPPAKLPKPPVGPKPEPKVFNGGLGRKLPVSSAQPLFPTAGLADMTAELQKKLEKRRALEH	soluble
PQQRRDIRFVWSGDTVGQGFGINPDIGGMRIYEAMRLRLPDFFIHSGDTIYADGPVPAQITAEGGRIWRNITTEAKSKVAETLDEYRGNYRYNLMDENLRRFNAEVPQIWQWDDHEVTNNWSPSKQLDDRYKVKDIQLLSSRARQAYLEYAPLRLQEADKGGRIYRKIPYGPMLDVFVLDMRSYRDGNDANLADKPGPTTAFMGCEQLDWLKRELDASTAQWKVIAADMPIGLGVPDGEVSPGVPRWEAIANGNDGPALGRELEIAELLAYLRAQKVRDCVWLTADVHYCAAHHYQPDLAVFQDFDPFWEFVAGPLNASSFGPNVLDKTFGPELVFQKAPPAQNTSPFAGYQFFGEVNIDGQTGEMSVALRDLDGVSVFERKLQP	not soluble
MGSDKIHHHHHHMKTNLLNYDLQGLTRHFADMGEKPFRAKQVMRWMHQSGAQNFNEMTDLAKSLRHKLNEQAGIEIPKLMMSQKSSDGTRKWLLDVGTGNGVETVFIPESDRGTLCISSQVGCALECTFCSTGRQGFNRNLTAAEIIGQLWWANKAMGVTPKNERVISNVVMMGMGEPMANFDNVVTALSIMLDDHGYGLSRRRVTVSTSGMVPQMDRLRDVMPVALAVSLHASNDEVRNQIVPLNKKYPLKELMAACQRYLVKAPRDFITFEYVMLDGINDKAQHARELIELVTDVPCKFNLIPFNPFPNSGYERSSNENIRVFRDILQQAGFVVTVRKTRGDDIDAACGQLAGQVQDKTRRQQKWQQILIGQQG	not soluble
SEAWEYFHLAPARAGHHPNQYATCRLCGRQVSRGPGVNVGTTALWKHLKSMHREELEKSGHGQ	soluble
NFCVYMCPYSRVQSVLYDNDTIMTVYDYERGGKVFDPKGIKLWKKPETPNAECTGCELCVKVCPTHIDIRKGMQLECINCLECADAC	not soluble
MAHHHHHHMWHTTVMVPTQHWGAVGYFPAIVTRPSQLNFSGSYDPVAWSGPPSYPGQFAAGNRRQLGQQEQYRQPYSNYHNRPQPHRQMHAQPPYMAHRMTVNAVTYGFGDPTLGVYRTSADGWKYRGAYGGGRRPSPPFQAMVTRPLVSSNGRRRRGTHARANMAGGWGDLDTYDLYAFEAGENLDVDNMSYEELLELTERLGMVERGVQPARLNELRVVITPTHVKQQLESDRMVAGRNGLVKGGANIDQEEKEANEKMCEEDPIKCCICLDGVLVGQTATRMPCCRNFLHASCAAPWFV	not soluble
MGSDKIHHHHHHMKITKVECIPVSMPLKKPLRLPNVTITKLDTLLLRLHTETGLVGIAESGDTSSWYRGESQASMVSMICDIFAPRILLGEDPCNIEKIVGAMDTLARDNNQAKGLVDCALHDLKGKVLNVPVYQLLGGRTRESAPLGWVLSAGEPDKVAEAALSAREAGFVAFKLKVGRGTFDNDVATAAAVRKALGDSARICLDANGSWNYEQALRTIRRLDAYRLDFVEQPLPHWDIEGMARLRQRIDTPVYADEAAQELHHLKEIAERRAADGVILKVQKVGGLLKAQRFLAVAQMFDLPVMCSTLIGSGVEACPTAHLWVANQWACQFISESTGPLAVHGVWNSEDIPQGADLALQGARFHRGHVSPGDGPGLGVELNEALLGQIRTEGRPARVVNL	not soluble
MGSDKIHHHHHHMQSPIPVLSMRKLYLGASDRQQFIADLGRAARDVGFFYLEDHGISLAEQVKVLDTAKSFFALSDAEKKQVQMIHSPHFRGYSANYSELTAGRPDRREQFDIMDELPALSASAIHHEWQKLIGPNQWPRQLPAIKSQLLSWQDKLTEVSLQLLAALCESLEQPADALAETISNGPYRHTKLIKYPGSPEASGQGVGAHKDPGYLTLVLQDENSGLEVEYEQQWYKVAPRPGAFVVNIGELLELASNGYLKATNHRVSSPKTGVTRYSSAFFMAAQLNASVPVLKLPSHLAKHAKGPTSDPGNPLLHNVGENVMKGRKRSHPDVSARFYASEEKCSSC	not soluble
GSHMASFNGVSEAELLTKTLPDILTFNLDIVIIGINPGLMAAYKGHHYPGPGNHFWKCLFMSGLSEVQLNHMDDHTLPGKYGIGFTNMVERTTPGSKDLSSKEFREGGRILVQKLQKYQPRIAVFNGKCIYEIFSKEVFGVKVKNLEFGLQPHKIPDTETLCYVMPSSSARCAQFPRAQDKVHYYIKLKDLRDQLKGIERNMDV	soluble
MSLIHEISENEKPREKLQNYGIEALSSSELVALIIETGTKNESVLTIANRIIMKFKNVGEMQYASIEEFQLVNGIGIAKASKIMAAIELGRRIGIVTEQEEVVVRCPEDAVKLVMPELAFLFQEHFHCLFLNTKNQVIYRQTIFVGGLNASIVHPREVFRLALRKSAASIMCFHNHPSGDPTPSSEDLLVTKRLAEAGNIVGITLLDHIIIGKNKYISLKEKGYFEGHHHHHH	not soluble
YTSLIRRVEHAVDSDGSFETGNEVKLSGVGVIGTDERFERVGETYASYYGYESEELVGKHWSELHPSNEVQHIRTHVIPAVRSGGKWTGQSKGLRADETTFTESKMVTALEDGRMLIAVDEIDDSGLAE	not soluble
VTTSSDPSSPVPQEDLDAVAAQLGREPRGVLEIAYRSPDGTPGVVKTAPKLPDGTPFPTLYYLTDPRLTAEASRQESAGVMREMTERLGQDPELAAAYLRAHESYLAERDAIEPLGTDFTGGGMPERVKCLHVLMAHSLAKGPGVNPLGDESVALAASAAGGKLRGTAIPADWPGIDDVESPEQ	not soluble
QALEYSGTKRFVYVIDENNKATRQEVLLGARVDNEVVIESGVEIGDKIVVQGIVNMRDGVEVKEIVAPLKANTTDVTRNDSESVEEEN	not soluble
MAKENYSDPNGKLLNSITTFEVNGEEVKLSGNIIRDYLVSGNAEVTDQEIIMFLQLCKYQKLNPFLNEAYLVKFKNTKGPDKPAQIIVSKEAFMKRAETHEQYDGFEAGIIVERNGEVVEIEGAVSLDKDKLLGGWAKVFRKDRSRPVSVRISEREFNKRQSTWNAMPLTMMRKTAVVNAMREAFPDNLGAMYTEEEQGSLQNNETSVQEEIKQNANTEMLDIPAQQIEVPDFKEIREPEHVEMPPIYDEQPSTPPARPY	not soluble
MGSDKIHHHHHHMKTFLESLKFPVQEVNKKSSGEKGPGRPPYWEMVFYWTRKPLVGARSVIAGALLPENVDENLFKAAVRLSSPTPHRENPQIPAEFAKYFEGKKLLDPFAGFGSIPLEGLRLGLDVTAVELLPTTYIFLKAVLEYPKKFGKSLVKDVERWGEWITEQLKNDPEIRELYDDDVAVYIGTWEIRCPHCGRWTPAIGNFWLARVKDGKGYKRLAYMKPERKGDEIEIRVIDLNEILDDISKANVDGNEIIFEGENYVKTVEEAVRDGKLKQSDVKIDGNTVIFEVPSANIESRRDQLTCLMCGNVIKYADENGNHHMKLKNGDFYVKFALRKYHEGDERFARQRLLVKVKVKDGDLIFEPATKEDSEKLWKAKEKVREMLEKGDLDVPSEAIPLYENRRITPILSAEKWYQFFNPRQLLTLIKIVRLIREVGRKVEEEKIAEGWNKERAFEYAEAVATYLSTAMLKYAYYNSIVTRWDSTWWKIGETMSTRGIAMNWNWTESPWFSSFGGMIKTLLAILRGVKYLTSALSSSQRTLADFTENSVKVLQGDATSLNLGEKFDVIVTDPPYADDVPYTELSDFYYVWLKRALSDVENGKLIPRFHKEAFFKRIGPKWVEIKTQWQEFAKKEVSTNPGRFMEDENKKEKAVQHFENLFSQAFVAMREHLKDDGVLVTYYAHTDPGSWINLIEAGWRRARLQITRAIPLTTESETSIVSRGKMSLDTSIVAVWRKQKEEKTVQISTLKEEIERKAKSSAREFIEYGYEGLDLLYGVMAAALEEVTKYREISSLKGPLTTEEILNEYVYPATIRGIVNAIAEIEGTGTLHSGTAMFYTAYKILFGNASLSANDIVLLRLATSTDPSELISSGVLKEKRSSSSKEYTLYTPDLLGKKALDTKEFQKFLHEKKLDPVEPKPKNSVDVLQLLEYYSLLGRSRVKEEIEKLRKMWAGEVEEALFIARLVSEYYAEIYIRKIDPVRRMKEEFASEIDRELEKDGFLEVVLMRRLLGYVGGAV	not soluble
YIKYFNDKTIDEELERDKRVTWIVEFFANWSNDCQSFAPIYADLSLKYNCTGLNFGKVDVGRYTDVSTRYKVSTSPLTKQLPTLILFQGGKEAMRRPQIDKKGRAVSWTFSEENVIREFNLNEL	soluble
MLASRRLLPQISSRALSTSPALKSSEISVKEERPYVYNVKLNRPAKLNTFTMDMWREFKKAIDSLADDPKCRSIIISGEGKAFCAGIDIAHGLSDILRIIQDDTIEVGRKGRLVRKFIGEIQDCYTALERCPKPIIASIHSHCLGAGIDLITACDIRVASQDAIFSIREVDVGLAADIGTLNRIQKVVGNDSWTRDVAFTARDFGADEALRFGLISRIYDDRQSLLENSIDMAARIAEKSPIAVQGTKETLNYAREHSTDDSLNFIKTWNMSQLLSTDLLSSAMAVMNKKKATYEDV	not soluble
PYNKNGFKVGMKLEGVDPEHQSVYCVLTVAEVCGYRIKLHFDGYSDCYDFWVNADALDIHPVGWCEKTGHKLHPPKGYKEEEFNWQTYLKTCKAQAAPKSLFENQNITVIPSGF	soluble
MGSDKIHHHHHHMKYDVVVIGAGGAGYHGAFRLAKAKYNVLMADPKGELGGNCLYSGCVPSKTVREVIQTAWRLTNIANVKIPLDFSTVQDRKDYVQELRFKQHKRNMSQYETLTFYKGYVKIKDPTHVIVKTDEGKEIEAETRYMIIASGAETAKLRLPGVEYCLTSDDIFGYKTSFRKLPQDMVIIGAGYIGLEIASIFRLMGVQTHIIEMLDRALITLEDQDIVNTLLSILKLNIKFNSPVTEVKKIKDDEYEVIYSTKDGSKKSIFTNSVVLAAGRRPVIPEGAREIGLSISKTGIVVDETMKTNIPNVFATGDANGLAPYYHAAVRMSIAAANNIMANGMPVDYVDVKSIPVTIYTIPSLSYVGILPSKARKMGIEIVEAEYNMEEDVSAQIYGQKEGVLKLIFERGSMRLIGAWMIGVHSQYLINELGLAVAYGLNAKQLASFAEQHPSTNEIISYTARKVI	not soluble
MGSDKIHHHHHHMVYVGTSGFSFEDWKGVVYPEHLKPSQFLKYYWAVLGFRIVELNFTYYTQPSWRSFVQMLRKTPPDFYFTVKTPGSVTHVLWKEGKDPKEDMENFTRQIEPLIEEQRLKMTLAQFPFSFKFSRKNVEYLEKLRESYPYELAVEFRHYSWDREETYEFLRNHGITFVVVDEPKLPGLFPYRPITTTDYAYFRFHGRNERWFEAEGEERYDYLYSEEELKTLFEDVVELSRRVKETYVFFNNCYKGQAAINALQFKKMLEERV	soluble
